Test results from the supplement of paper PMC10126150.
± gives the standard deviation of the averaged measurements.

Test system: ATP
Assay: switch fluorescence ratio, 500 uM ATP over buffer (Cy3 cluster intensity, sum of 5 cycles each) (fold (ratio)); higher = stronger signal-on switching upon ATP binding; sequences stand for … in TCGTCGGCAGCGTCAGATGTGTATAAGAGACAGTTTTTTTTTTTTTTTTTTTTTTTTT…TC
Conditions: aptamer strand: ATP DNA aptamer (quencher-CACCTGGGGGAGTATTGCGGAGGAAGG + anchor), 100 nM annealed; ATP concentration: 500 uM
Procedure, shortened: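 After annealing to 100 nM quencher-labelled ATP aptamer, Cy3-labelled switching-strand clusters on a modified Illumina MiSeq flow-cell were imaged in selection buffer. A second image followed after 15 min with 500 uM ATP at 22 °C, and five such buffer/ATP cycles were done, each separated by NaOH stripping and re-annealing. The fluorescence ratio, averaged per switch-domain sequence, is summed target-cycle over summed buffer-cycle Cy3 intensity per cluster, with clusters outside 100-1000 RFU excluded.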
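Note: ATP exposure 15 min at 22 °C before imaging.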

Row | Sequence | switch fluorescence ratio
1 | ATTTTAGGTT | 0.984 ± 0.03
2 | ATTTTATGTG | 0.991 ± 0.018
3 | ATTTTATTGT | 1 ± 0.05
4 | ATTTTCAACT | 1.03 ± 0.018
5 | ATTTTCATAC | 1.08 ± 0.026
6 | ATTTTCCTTT | 1.02 ± 0.039
7 | ATTTTCGGAT | 0.975 ± 0.01
8 | ATTTTCGTTA | 1.04 ± 0.024
9 | ATTTTGATAA | 1.02 ± 0.021
10 | ATTTTGCCGG | 0.965 ± 0.013
11 | ATTTTGGACC | 1 ± 0.021
12 | ATTTTGGGAC | 1.03 ± 0.047
13 | ATTTTGTAGT | 1.02 ± 0.029
14 | ATTTTGTCTT | 1.02 ± 0.019
15 | ATTTTGTGAT | 0.994 ± 0.025
16 | ATTTTGTGGA | 0.987 ± 0.015
17 | ATTTTGTTAG | 0.998 ± 0.011
18 | ATTTTGTTGT | 1.03 ± 0.048
19 | ATTTTTAACT | 0.99578 ± 0.00077
20 | ATTTTTACTC | 1.01 ± 0.029
21 | ATTTTTAGCA | 0.99765 ± 0.00045
22 | ATTTTTAGCT | 1.02 ± 0.031
23 | ATTTTTAGGG | 1.02 ± 0.033
24 | ATTTTTCCGT | 1.02 ± 0.019
25 | ATTTTTCTTC | 1.035 ± 0.0046

Row | Sequence | switch fluorescence ratio
26 | ATTTTTGAAC | 0.99 ± 0.019
27 | ATTTTTGGTC | 0.9864 ± 0.0038
28 | ATTTTTGTGA | 0.98 ± 0.013
29 | ATTTTTTAAG | 0.9996 ± 0.0081
30 | ATTTTTTTG | 0.955 ± 0.021
31 | CAAAAAGAAT | 1.003 ± 0.0048
32 | CAAAAAGAGT | 1.014 ± 0.009
33 | CAAAAAGCAC | 1.06 ± 0.036
34 | CAAAAATTTT | 0.986 ± 0.026
35 | CAAAAGAACG | 0.975 ± 0.031
36 | CAAAAGATTC | 1.045 ± 0.0095
37 | CAAAAGTCGA | 1.04 ± 0.031
38 | CAAAATATGG | 0.984 ± 0.051
39 | CAAAATTCCG | 1.08 ± 0.017
40 | CAAACGTGGG | 0.98611 ± 0.00012
41 | CAAAGAACTT | 1.01 ± 0.018
42 | CAAAGCATCT | 1.09 ± 0.011
43 | CAAAGCGCTG | 0.986 ± 0.012
44 | CAAAGGAAGC | 1.02 ± 0.05
45 | CAAAGGCAGG | 1.004 ± 0.0065
46 | CAAAGGGGAT | 0.99484 ± 0.00073
47 | CAAAGTAATT | 0.983 ± 0.033
48 | CAAAGTACGT | 1.18 ± 0.043
49 | CAAAGTTAAC | 0.949 ± 0.0098
50 | CAAAGTTAGG | 0.97 ± 0.013

Row | Sequence | switch fluorescence ratio
51 | CAAAGTTGCG | 0.984 ± 0.017
52 | CAAAGTTTCG | 1.04 ± 0.0012
53 | CAAATAAAGG | 1.01 ± 0.025
54 | CAAATACCTG | 1.04 ± 0.019
55 | CAAATACGTT | 1.01 ± 0.029
56 | CAAATATTTT | 0.996 ± 0.017
57 | CAAATGTCAG | 0.99 ± 0.028
58 | CAAATTATGG | 1.03 ± 0.01
59 | CAAATTTGGT | 0.993 ± 0.032
60 | CAAATTTTCT | 0.978 ± 0.025
61 | CAACCGTGAA | 1.91 ± 0.92
62 | CAACCTGCAG | 1.06 ± 0.012
63 | CAACGCCTCC | 3.52 ± 0.082
64 | CAACGGGTTC | 1.03 ± 0.024
65 | CAACTATTGC | 1.04 ± 0.036
66 | CAACTATTTG | 1 ± 0.013
67 | CAACTCAGTA | 0.988 ± 0.016
68 | CAAGAAATTA | 1 ± 0.011
69 | CAAGAATGTA | 0.973 ± 0.024
70 | CAAGACCACT | 1.06 ± 0.045
71 | CAAGACTTCG | 1.01 ± 0.052
72 | CAAGAGGGAC | 1.04 ± 0.13
73 | CAAGATATAT | 1 ± 0.016
74 | CAAGATTCCA | 1.016 ± 0.0077
75 | CAAGCGACGG | 1.03 ± 0.022

Row | Sequence | switch fluorescence ratio
76 | CAAGCGATGG | 1.63 ± 0.065
77 | CAAGGCTCAA | 1 ± 0.0013
78 | CAAGGGCCAG | 0.973 ± 0.07
79 | CAAGGGGGA | 0.995 ± 0.02
80 | CAAGGGGGGG | 0.99 ± 0.034
81 | CAAGGGGGTA | 0.995 ± 0.037
82 | CAAGGGTCCG | 0.991 ± 0.045
83 | CAAGGGTTGT | 0.992 ± 0.0024
84 | CAAGGTTGAG | 0.979 ± 0.034
85 | CAAGTAGGG | 0.956 ± 0.052
86 | CAAGTAGTGG | 1.03 ± 0.011
87 | CAAGTATATT | 0.968 ± 0.032
88 | CAAGTATCAT | 0.996 ± 0.076
89 | CAAGTATGAG | 0.9829 ± 0.0065
90 | CAAGTGACTT | 1.02 ± 0.016
91 | CAAGTGCTTA | 0.9578 ± 0.0081
92 | CAAGTGGCAC | 0.977 ± 0.022
93 | CAAGTTAAGG | 1.02 ± 0.013
94 | CAAGTTTGGG | 0.982 ± 0.019
95 | CAAGTTTTTT | 0.984 ± 0.016
96 | CAATAAAAG | 0.9766 ± 0.0071
97 | CAATAAAGCT | 1.07 ± 0.041
98 | CAATACTCAA | 2.14 ± 0.023
99 | CAATACTTG | 1.027 ± 0.0074
100 | CAATAGAGAG | 0.997 ± 0.024
